Source: US20170306368, “METHODS FOR THAXTOMIN PRODUCTION AND MODIFIED STREPTOMYCES WITH INCREASED THAXTOMIN PRODUCTION” (University of Florida Research Foundation, Inc., published 2017)

Assays:
Conditions in all cases: tags: C-terminal His6 (pET-22b, E. coli); label: Cy5
CebR (SCAB57761) [1] = target: T1, CebR (SCAB57761) (Streptomyces scabies 87-22); test: EMSA; strong binding with 20-fold excess nonspecific salmon sperm DNA; same buffer; inhibited by cellobiose
T1 chain: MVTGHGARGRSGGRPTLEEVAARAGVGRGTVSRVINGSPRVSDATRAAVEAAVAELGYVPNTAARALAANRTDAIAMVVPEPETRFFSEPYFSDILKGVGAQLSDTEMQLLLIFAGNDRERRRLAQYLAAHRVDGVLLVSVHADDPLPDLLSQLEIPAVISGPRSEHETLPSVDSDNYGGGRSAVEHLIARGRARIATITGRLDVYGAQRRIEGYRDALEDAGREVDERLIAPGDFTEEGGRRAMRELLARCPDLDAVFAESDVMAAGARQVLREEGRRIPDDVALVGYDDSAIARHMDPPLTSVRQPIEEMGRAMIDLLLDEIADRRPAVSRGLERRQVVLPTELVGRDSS

CebR (SCAB57761) [2] = target: T1, CebR (SCAB57761); test: EMSA; strong binding with 20-fold excess nonspecific salmon sperm DNA; 0.08-3.2 uM CebR; pH 7.5, 0.25 mM CaCl2, 0.5 mM MgCl2, 50 mM KCl, room temperature; inhibited by cellobiose
CebR (SCAB57761) [3] = target: T1, CebR (SCAB57761); test: EMSA; strong binding, positive control; excess nonspecific salmon sperm DNA; same buffer; inhibited by cellobiose

B1: cbs txtB probe (dsDNA)
DNA 1: CTCCCCCAGGGGGAGCGCTCCCACTGCGCTGTA
DNA 2: TACAGCGCAGTGGGAGCGCTCCCCCTGGGGGAG
binding result (CebR (SCAB57761) [1]): binds

B2: cbs txtR-A probe (dsDNA)
DNA 1: TGTCAATAAGCGGGAGCGCTCCCACAGCGCTCTC
DNA 2: GAGAGCGCTGTGGGAGCGCTCCCGCTTATTGACA
binding result (CebR (SCAB57761) [2]): binds

B3: cbs bglC probe (dsDNA)
DNA 1: GGTTCAGGCATGGAAGCGCTCCCATTGGTGGTCG
DNA 2: CGACCACCAATGGGAGCGCTTCCATGCCTGAACC
binding result (CebR (SCAB57761) [3]): binds

B4: cbs cebR-E probe (dsDNA)
DNA 1: CCAGGTACTGTGGGAGCGCTCCCACGAGTGATGT
DNA 2: ACATCACTCGTGGGAGCGCTCCCACAGTACCTGG
binding result (CebR (SCAB57761) [3]): binds
